Measured values from patent US20170100463A1, “METHOD TO IMPROVE SAFETY AND EFFICACY OF ANTI-CANCER THERAPY” (CLS Therapeutics Limited, priority 2014, published 2017).

Assays:
L1210 leukemia cells = assay: Survival of mice transplanted with L1210 leukemia cells; assay type: in vivo, DBA2 mice; settings: AraC 1000 mg/kg IP Days 2, 5, 8; DNase II 15 or 45 mg/kg/day IP; alone or combined
Experimental: Treatment with DNase and AraC was initiated on Day 1 of experiment. Cytosine arabinoside (AraC; Cytosar; Pfizer) was injected IP at a dose of 1000 mg/kg on Days 2, 5 and 8. The injected doses were considered adequate for the model and injection route based on prior experiments (13-14). DNase II (Wornington) was injected IP at doses of 15 mg/kg/day and 45 mg/kg/day on Days 1, 3, 5, 8, 10, 12, 15, 17, and 19.
Animals were randomized into 6 experimental groups of 6 mice per group as follows: • 1. Group I: negative control (no treatment); • 2. Group II: positive control (animals treated with AraC); • 3. Group III: animals treated with AraC and 15 mg/kg DNase; • 4. Group IV: animals treated with AraC and 45 mg/kg DNase; • 5. Group V: animals treated with 15 mg/kg DNase, no AraC; • 6. Group VI: animals treated with 45 mg/kg DNase, no AraC.

[1] = Gastrointestinal lesions after Etoposide/5-FU chemotherapy in rats; assay type: in vivo, male Wistar rats; settings: for Total number of lesions per group: 16 rats; for Total number of lesions per group / Number of lesion free animals (percent) / Median number of lesions / Number of lesion free animals: Etoposide 200 mg/kg + 5-FU 400 mg/kg per os; for Total number of lesions per group / Median number of lesions: 36 hours; for Number of lesion free animals: of 16 rats
Experimental: Animals were divided into 4 groups of 16 rats each. Two hours after the Etoposide/5-FU challenge, rats were treated as follows: • 1. Group I: IV placebo (WFI); • 2.

in vivo = assay: in vivo
Text: Group I: control group (no Doxorubicin, no DNase); • 2.
Animals were monitored during 2 weeks from the beginning of experiment for survival and weight.

[2] = Cyclophosphamide-induced neutropenia, white blood cell count; assay type: in vivo, BALB/C mice; settings: mice, cyclophosphamide 200 mg/kg IP Day 1; for early phase decline in WBC count (FIG. 3): DNase I 25 mg/kg/day IV or GM-CSF 200 μg/kg/day SC Days 2-5
Experimental: 30 female 10-12 week old BALB/C mice (obtained from Rappolovo animal house) were used in this experiment. […] On Day 1, neutropenia was induced by a single IP injection of 200 mg/kg cyclophosphamide (Cyclophosphanum-LANS) in 200 μl of WFI. Starting on Day 2, mice were then treated as follows: • 1. Group I (n=10): control (no treatment); • 2. Group II (n=10): animals were treated with human recombinant DNase I (Pharmsynthez OJSC) at 25 mg/kg/day (50000 KU/kg/day) dose injected IV on Days 2-5; • 3. Group III (n=10): animals were treated with human recombinant GM-CSF (Neostim, Pharmsynthez OJSC) at 200 μg/kg/day dose injected subcutaneously (SC) on Days 2-5.
The white blood cell count (WBC) in each animal was monitored daily during the 10 day experiment using blood cell counter.

[3] = Myocardial necrosis area in deceased rats challenged with doxorubicin; assay type: in vivo; settings: doxorubicin 7.5 mg/kg, DNase I 15 mg/kg daily IP vs placebo
Experimental: FIG. 1 is a bar graph showing myocardial necrosis area in deceased rats challenged with sub-lethal IV doses of doxorubicin (7.5 mg/kg) and either daily IP injections of human recombinant DNase I (15 mg/kg) (black bar) or daily IP injections of placebo (WFI) (diagonal hatched bar). Serial myocardium microscopy samples from each heart were analyzed using an automated video analyzer to quantify the necrotic areas. The sum of necrotic area (Sna; nm^2) was calculated as a sum of necrotic areas in 30 serial slides from each individual autopsied heart (n=3 for DNase I-treated rats—black bar; n=5 for placebo-treated rats—diagonal hatched bar).
The hearts deceased rats challenged with sub-lethal doses of doxorubicin (7.5 mg/kg) from (Groups IV and V) were autopsied. Serial myocardium microscopy samples from each heart were analyzed using an automated video analyzer to quantify the necrotic areas. The sum of necrotic area (Sna; nm^2) was calculated as a sum of necrotic areas in 30 serial slides from each individual autopsied heart (n=3 for Group IV (FIG. 1, black bars); n=5 for Group V (FIG. 1, diagonal hatched bars)). Group IV received daily IP injections of human recombinant DNase I at 15 mg/kg dose, while Group V received daily IP injections of placebo (WFI).

Erlich carcinoma cells = assay: Erlich carcinoma ascites tumor with radiotherapy: survival and body weight
Experimental: Radiotherapy was performed using a cobalt-60 teletherapy machine. The abdominal fields of the mice were treated by external irradiation. The fractionation was 200 cGy per day for 5 days. Mice were divided into 6 groups treated as follows: Group 1: radiotherapy only (external irradiation 200 cGy per day for 5 days); Group 2: recombinant human DNAse I (Pharmsynthez) 20 mg/kg/day administered intramuscularly in 2 daily doses; Group 3: recombinant human DNAse I (Pharmsynthez) 40 mg/kg/day administered intramuscularly in 2 daily doses; Group 4: radiotherapy (external irradiation 200 cGy per day for 5 days) plus recombinant human DNAse I (Pharmsynthez) 20 mg/kg/day administered intramuscularly in 2 daily doses; Group 5: radiotherapy (external irradiation 200 cGy per day for 5 days) plus recombinant human DNAse I (Pharmsynthez) 40 mg/kg/day administered intramuscularly in 2 daily doses. Group 6 was a control group receiving placebo (water for injection).

[4] = Doxorubicin 7.5 mg/kg/day IV 5 days + DNase I 15 mg/kg/day IP (Group IV) or placebo (Group V)
[5] = Doxorubicin 10.0 mg/kg/day IV 5 days + DNase I 15 mg/kg/day IP (Group VI) or placebo (Group VII)
[6] = rats, Doxorubicin 7.5 mg/kg/day IV 5 days + DNase I 15 mg/kg/day IP (Group IV) or placebo (Group V), monitored 2 weeks
[7] = rats, Doxorubicin 10.0 mg/kg/day IV 5 days + DNase I 15 mg/kg/day IP (Group VI) or placebo (Group VII), monitored 2 weeks
[8] = Group 2: DNAse I 20 mg/kg/day intramuscularly, no radiotherapy
[9] = Group 3: DNAse I 40 mg/kg/day intramuscularly, no radiotherapy
[10] = Group 4: radiotherapy 200 cGy per day for 5 days plus DNAse I 20 mg/kg/day intramuscularly
[11] = Group 5: radiotherapy 200 cGy per day for 5 days plus DNAse I 40 mg/kg/day intramuscularly

## Nc1ccn([C@@H]2O[C@H](CO)[C@@H](O)[C@@H]2O)c(=O)n1 [AraC, cytosine arabinoside]
L1210 leukemia cells
  survival after implantation of L1210 leukemia cells (FIG. 4): better survival rates versus non-treated mice

## CN/C(=N/CCSCc1nc[nH]c1C)NC#N [Cimetidine, cimetidine, reference compound]
[1]; treatment 50 mg/kg IV
  Total number of lesions per group: 40
  Number of lesion free animals (percent): 62.5%
  Median number of lesions: 2.5 ± 1.1
  Number of lesion free animals: 10

## COc1cccc2c1C(=O)c1c(O)c3c(c(O)c1C2=O)C[C@@](O)(C(=O)CO)C[C@@H]3O[C@H]1C[C@H](N)[C@H](O)[C@H](C)O1 [Doxorubicin, reference compound]
In vivo; [4]
  Median survival of deceased rats: 8.2 ± 1.0 days
In vivo; [5]
  Median survival of deceased rats: 6.6 ± 0.9 days
In vivo; male, Wistar, rat, in vivo
  Median survival of deceased rats: 12 ± 2.1 days
  Number of dead/out of total in group: 3/6
In vivo; male, Wistar, rat, in vivo, iv
  LD50 at 2 weeks: 3.75 mg/kg
In vivo; [6]
  Number of dead/out of total in group: 5/6
In vivo; [7]
  Number of dead/out of total in group: 6/6

## GM-CSF: human recombinant GM-CSF (Neostim, Pharmsynthez OJSC)
[2]
  early phase decline in WBC count (FIG. 3): not able to prevent it

B1: human recombinant DNase I: human recombinant DNase I (Pharmsynthez OJSC), deoxyribonuclease enzyme (protein, UniProt P24855 23-282, looked up)
Deoxyribonuclease-1: LKIAAFNIQTFGETKMSNATLVSYIVQILSRYDIALVQEVRDSHLTAVGKLLDNLNQDAPDTYHYVVSEPLGRNSYKERYLFVYRPDQVSAVDSYYYDDGCEPCGNDTFNREPAIVRFFSRFTEVREFAIVPLHAAPGDAVAEIDALYDVYLDVQEKWGLEDVMLMGDFNAGCSYVRPSQWSSIRLWTSPTFQWLIPDSADTTATPTHCAYDRIVVAGMLLRGAVVPDSALPFNFQAAYGLSDQLAQAISDHYPVEVMLK
[3]
  myocardial necrosis area (sum of necrotic area, FIG. 1): decreases the myocardial necrosis area
Erlich carcinoma cells; [8]
  % Survival on Day 16: 40%
  Change in Median Body Weight on Day 16: +2 g
Erlich carcinoma cells; [9]
  % Survival on Day 16: 50%
  Change in Median Body Weight on Day 16: +1.5 g
Erlich carcinoma cells; [10]
  % Survival on Day 16: 80%
  Change in Median Body Weight on Day 16: 0
Erlich carcinoma cells; [11]
  % Survival on Day 16: 100%
  Change in Median Body Weight on Day 16: +1.5 g
[1]; treatment 1.5 mg/kg IV
  Total number of lesions per group: 60
  Number of lesion free animals (percent): 31.25%
  Median number of lesions: 3.75 ± 1.53
  Number of lesion free animals: 5
[1]; treatment 50 mg/kg IV
  Total number of lesions per group: 16
  Number of lesion free animals (percent): 75%
  Median number of lesions: 1.00 ± 0.69
  Number of lesion free animals: 12
[1]; DNase I 50 mg/kg compared to 1.5 mg/kg DNase I and 50 mg/kg cimetidine
  achieved protection against chemotherapy-induced ulceration: significantly superior
[1]; oral Etoposide 200 mg/kg and 5-FU 400 mg/kg followed by IV DNase I 50 mg/kg
  macroscopic appearance of stained stomach (FIG. 2A): does not have any macroscopic abnormalities
In vivo; [4]
  Median survival of deceased rats: 10.3 ± 1.4 days
In vivo; [5]
  Median survival of deceased rats: 6.2 ± 1.0 days
In vivo; rat, in vivo
  Body weight of surviving rats, Baseline: 168 ± 4 grams
  Body weight of surviving rats, Day 4: 160 ± 6 grams
  Body weight of surviving rats, Day 7: 158 ± 5 grams
  Body weight of surviving rats, Day 14: 164 ± 6 grams
  Median survival of deceased rats: 7 days
  Number of dead/out of total in group: 1/6
In vivo; [6]
  Number of dead/out of total in group: 3/6
In vivo; [7]
  Number of dead/out of total in group: 6/6
[2]; DNase I 25 mg/kg/day IV Days 2-5
  neutropenia induced by cyclophosphamide (WBC, FIG. 3): ameliorates neutropenia
[2]
  early phase decline in WBC count (FIG. 3): prevents the typical early phase decline in WBC count
